Substitutions are numbered along the chain they refer to.
T1: human NKp30 (human, UniProt O14931 19-135)
T1 chain: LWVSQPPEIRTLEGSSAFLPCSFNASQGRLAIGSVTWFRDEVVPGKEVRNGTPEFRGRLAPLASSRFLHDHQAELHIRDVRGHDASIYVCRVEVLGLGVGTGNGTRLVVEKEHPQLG

T2: cynomolgus NKp30 (cynomolgus, UniProt P61483 19-135)
T2 chain: T1 chain with V43A, A63S, H69R, R78W, S86G, H113Y

B1: hamster anti-NKp30 antibody 9D9 (antibody, V domains shown)
VH: QIQLQESGPGLVKPSQSLSLSCSVTGFSINTGGYHWNWIRQFPGKKVEWMGYIYSSGTTKYNPSLKSRISITRDTSKNQFFLQLNSVTTEDTATYYCARGDWHYFDYWGQGTMVAVSS
VL: SYTLTQPPLVSVALGQKATIICSGENLSDKYVHWYQQKPGRAPVMVIYENDKRPSGIPDQFSGSNSGNIATLTISKAQAGYEADYYCHCWDSTNSAVFGSGTHLTVL
B2: 9D9-1C1 (antibody, V domains shown)
VH: B1 VH
VL: B1 VL

Columns and labels:
Assay in all cases: ELISA (A450)
human NKp30 = target: T1, human NKp30
cynomolgus NKp30 = target: T2, cynomolgus NKp30
Rat NKp30 = target: Rat NKp30

Row | Binder | IC50 (human NKp30) [nM] | IC50 (cynomolgus NKp30) [nM] | IC50 (Rat NKp30) [nM]
1 | B1 | 0.89 | 0.89 | 
2 | B2 |  |  | 0.32

Reference: patent publication US20210380691A1 (published 2021)
